The data set is described as follows: protein stability index of a GFP-peptide fusion (yeast GPS) (PSI 1-4); higher = more stable; sorted into four equal gates, so the index is relative within each strain. The method in brief:
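Yeast carrying a pooled library were grown to mid-log phase in leucine-free medium. Each library plasmid expresses Cherry and has a tiled 17-residue yeast protein peptide fused downstream of GFP. Cells were sorted into four equal gates by GFP/Cherry ratio, and plasmids from each gate were PCR-amplified, Illumina-sequenced and assigned to strains by barcode. Summing, across gates, the read frequency times the gate number gave each peptide's protein stability index.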

These results are taken from the supplement of paper PMC9732359.

± gives the uncertainty stated by the source.

Sequence FSKILPAALDGLMKSYK [ESC2] registered a protein stability index (doa10∆) of 2.71 ± 0.059, a protein stability index (pdr5∆) of 2.28 ± 0.069, a protein stability index (san1∆) of 2.73 ± 0.051 and a protein stability index (ubr1∆) of 2.54 ± 0.056.

As to FSMLQMAFEASAAAAGN [BRR2], the protein stability index (pdr5∆) was determined as 2.26 ± 0.25 and the protein stability index (san1∆) is 1.76 ± 0.21.

On to FSNKYLELCKLASNNLE [RRI2], for which the protein stability index by setting is: (doa10∆) 1.95 ± 0.054; (pdr5∆) 2.1 ± 0.039; (san1∆) 2.02 ± 0.068; (ubr1∆) 2.02 ± 0.043.

Consider FSNVNELQEKNVELLNC [YIL149C/MLP2], for which the protein stability index came out at 3.09 ± 0.082 (doa10∆), 3.29 ± 0.13 (pdr5∆), 3.06 ± 0.083 (san1∆) and 3.1 ± 0.075 (ubr1∆).

In the case of FSPVISQSLTSILVIVQ [SWI1], the protein stability index runs as follows: (doa10∆) 1.43 ± 0.048; (pdr5∆) 1.66 ± 0.05; (san1∆) 1.33 ± 0.076; (ubr1∆) 1.33 ± 0.04.

Take FSSKNEWRKSAIANTLL [PRP8]: the protein stability index is, setting by setting: (doa10∆) 2.99 ± 0.056; (pdr5∆) 2.79 ± 0.045; (san1∆) 2.94 ± 0.053; (ubr1∆) 2.72 ± 0.045.

Regarding FTFGQSTSENKISEGSA [YOR098C/NUP1], the protein stability index by setting is: (doa10∆) 3.71 ± 0.16; (pdr5∆) 3.35 ± 0.084; (san1∆) 2.86 ± 0.12; (ubr1∆) 3.37 ± 0.11.

Turning to FTGQGSQEQGMGMDLYK [FAS1], the protein stability index reads like this: (doa10∆) 3.28 ± 0.12; (pdr5∆) 3.4 ± 0.093; (san1∆) 3.41 ± 0.1; (ubr1∆) 3.4 ± 0.088.

Regarding FTLTYDIIETFSSKRKT [YMR129W/POM152], the protein stability index (doa10∆) amounted to 1.88 ± 0.05, the protein stability index (pdr5∆) was 2.07 ± 0.064, the protein stability index (san1∆) is 1.69 ± 0.077 and the protein stability index (ubr1∆) was 2.33 ± 0.056.

Consider FTNIISRNKALELNLSV [YJL039C/NUP192], for which the protein stability index (doa10∆) was 2.64 ± 0.11, the protein stability index (pdr5∆) stood at 2.78 ± 0.087, the protein stability index (san1∆) was found to be 2.62 ± 0.12 and the protein stability index (ubr1∆) was determined as 2.69 ± 0.088.

For FTQLKKNIPKTRYNRDY [SNU114], the protein stability index by setting is: (doa10∆) 2.48 ± 0.052; (pdr5∆) 2.59 ± 0.056; (san1∆) 2.98 ± 0.04; (ubr1∆) 2.79 ± 0.051.

With FTQQELQKQMGIGSLTD [RPC34], the protein stability index came out at 2.22 ± 0.088 (doa10∆), 2.39 ± 0.11 (pdr5∆), 2.33 ± 0.17 (san1∆) and 2.48 ± 0.11 (ubr1∆).

As to FTSHTRLRQGAAKLRTL [RPL2A], the protein stability index runs as follows: (doa10∆) 2.03 ± 0.059; (pdr5∆) 1.68 ± 0.044; (san1∆) 2.1 ± 0.073; (ubr1∆) 1.95 ± 0.039.

As for FTTNKSKDVSRLLSALG [SRP21], the protein stability index worked out at 3.03 ± 0.2 (doa10∆), 2.41 ± 0.28 (pdr5∆) and 2.8 ± 0.081 (ubr1∆).

In the case of FVIPILIKMSRSPPRPP [PRP28], the protein stability index reads like this: (doa10∆) 2.04 ± 0.069; (pdr5∆) 1.93 ± 0.065; (san1∆) 2.01 ± 0.088; (ubr1∆) 2.14 ± 0.073.

As for FVTRKSRKRAKKMTKKA [PRP8], the protein stability index by setting is: (doa10∆) 3.02 ± 0.075; (pdr5∆) 2.91 ± 0.12; (san1∆) 2.61 ± 0.11; (ubr1∆) 2.95 ± 0.12.

On to FVVGVDNVSSQQMHEVR [RPP0], for which the protein stability index stood at 2.1 ± 0.078 (doa10∆), 2.74 ± 0.1 (pdr5∆), 3.07 ± 0.15 (san1∆) and 2.74 ± 0.08 (ubr1∆).

Regarding FVVKLDTVDRLIIKYQK [GAL11], the protein stability index stood at 2.25 ± 0.042 (doa10∆), 2.3 ± 0.048 (pdr5∆), 2.54 ± 0.054 (san1∆) and 2 ± 0.039 (ubr1∆).

For FWFDKLVTKILPLKKNE [YCG1], the protein stability index stood at 2.83 ± 0.21 (doa10∆), 3 ± 0.14 (pdr5∆), 3.1 ± 0.15 (san1∆) and 2.43 ± 0.24 (ubr1∆).

On to FWSLHSSTYYNLDYLFE [NUT1], for which the protein stability index by setting is: (doa10∆) 2.44 ± 0.053; (pdr5∆) 2.05 ± 0.037; (san1∆) 2 ± 0.063; (ubr1∆) 1.95 ± 0.029.

On to FYERLDKSTTQLRKEIQ [MED11], for which the protein stability index reads like this: (doa10∆) 2.61 ± 0.063; (pdr5∆) 2.82 ± 0.081; (san1∆) 2.47 ± 0.064; (ubr1∆) 2.9 ± 0.072.

GAEDPKVLINDQLSTIS [SWI1]: the protein stability index runs as follows: (doa10∆) 3.27 ± 0.18; (pdr5∆) 3.24 ± 0.25; (san1∆) 3.32 ± 0.21.

As to GAEVDEARINELLSSLE [RPP2B], the protein stability index (doa10∆) worked out at 3.16 ± 0.11, the protein stability index (pdr5∆) stood at 3.5 ± 0.11, the protein stability index (san1∆) was found to be 3.22 ± 0.077 and the protein stability index (ubr1∆) worked out at 3.21 ± 0.1.

Regarding GAFDQLKQNAIRARIPF [SRP54], the protein stability index was determined as 2.69 ± 0.063 (doa10∆), 2.89 ± 0.06 (pdr5∆), 2.9 ± 0.057 (san1∆) and 3.03 ± 0.07 (ubr1∆).

Take GAKGSTLIVVPFNQGSK [FAS2]: the protein stability index (doa10∆) was 2.1 ± 0.095, the protein stability index (pdr5∆) stood at 2.48 ± 0.088, the protein stability index (san1∆) came out at 2.18 ± 0.14 and the protein stability index (ubr1∆) was found to be 1.85 ± 0.073.
